Reference: patent publication US20230277625A1 (SIMCHA IL 18, published 2023)

T1: Human IL-18BP (amino acids 31-194), biotinylated (human, UniProt O95998 31-194, biotin on the AviTag (BirA ligase) where used biotinylated)
T1 construct: Soluble decoy receptor; also called hIL-18BP; recombinant IL-18BP
T1 sequence: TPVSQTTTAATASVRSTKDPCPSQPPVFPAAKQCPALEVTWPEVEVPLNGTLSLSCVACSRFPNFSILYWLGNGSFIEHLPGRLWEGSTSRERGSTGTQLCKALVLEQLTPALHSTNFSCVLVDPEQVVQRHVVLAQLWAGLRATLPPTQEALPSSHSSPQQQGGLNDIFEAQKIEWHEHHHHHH

T2: IL-18 receptor (IL-18Rα / IL-18Rβ heterodimer) on HEK-Blue IL-18 reporter cells (UniProt Q13478 19-541; O95256 20-599, limits assumed)
T2 sequence (looked up) 1: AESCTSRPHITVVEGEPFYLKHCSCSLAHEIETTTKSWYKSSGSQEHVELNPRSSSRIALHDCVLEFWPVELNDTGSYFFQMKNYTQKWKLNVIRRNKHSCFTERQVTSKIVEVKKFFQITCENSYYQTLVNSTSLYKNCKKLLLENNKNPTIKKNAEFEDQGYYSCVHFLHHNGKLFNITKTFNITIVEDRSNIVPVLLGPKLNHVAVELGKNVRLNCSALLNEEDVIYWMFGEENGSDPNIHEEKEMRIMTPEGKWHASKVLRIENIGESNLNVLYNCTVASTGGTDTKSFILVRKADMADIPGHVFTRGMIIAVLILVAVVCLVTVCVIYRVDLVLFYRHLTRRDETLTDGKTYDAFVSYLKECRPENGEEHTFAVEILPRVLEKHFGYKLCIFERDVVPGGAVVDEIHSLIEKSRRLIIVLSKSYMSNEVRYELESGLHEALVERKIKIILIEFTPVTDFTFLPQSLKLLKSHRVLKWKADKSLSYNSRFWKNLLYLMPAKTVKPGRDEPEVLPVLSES
T2 sequence (looked up) 2: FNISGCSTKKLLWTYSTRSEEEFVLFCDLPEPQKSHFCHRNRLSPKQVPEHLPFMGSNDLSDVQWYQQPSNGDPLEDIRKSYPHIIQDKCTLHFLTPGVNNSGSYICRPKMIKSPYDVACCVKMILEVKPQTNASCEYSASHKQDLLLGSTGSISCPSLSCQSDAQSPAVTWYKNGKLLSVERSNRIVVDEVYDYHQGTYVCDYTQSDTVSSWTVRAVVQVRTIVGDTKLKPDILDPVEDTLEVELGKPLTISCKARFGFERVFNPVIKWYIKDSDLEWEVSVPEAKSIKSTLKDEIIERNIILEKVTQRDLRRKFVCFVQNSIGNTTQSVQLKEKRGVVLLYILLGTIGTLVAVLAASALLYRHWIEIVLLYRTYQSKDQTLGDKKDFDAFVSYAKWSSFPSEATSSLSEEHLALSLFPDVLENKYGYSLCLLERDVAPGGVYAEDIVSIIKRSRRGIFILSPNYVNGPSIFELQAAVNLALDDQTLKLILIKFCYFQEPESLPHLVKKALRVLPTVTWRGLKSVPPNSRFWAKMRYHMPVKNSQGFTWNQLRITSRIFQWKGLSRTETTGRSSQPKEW


Key:
[1] = target: T1, Human IL-18BP (amino acids 31-194), …; assay: on-yeast binding isotherm (flow cytometry), drawn summary table, column IL18BP (KD)
[2] = target: T2, IL-18 receptor (IL-18Rα / IL-18Rβ …); assay: cell-based or functional assay

Row | Binder | Kd [1] [nM] | EC50-#1 (M), HEK-Blue reporter [2] [M] | EC50-#2 (M), HEK-Blue reporter [2] [M]
1 | SEQ ID NO: 94 (human D2D IL-18 variant hD2D-5F10) (ligand, Engineered decoy-to-the-decoy variant) HFGKLESKLSVIRNLNGQVLFIDQGNRPLFADMEASPCRDNAPRTIFIISFYKDSQPRGLAVTISVKCEKISTLSCENKIISFKEMNPPDNIKDTKSDIIFFLRSVPGHDNKMQFESSSYEGYFLACEKERDLFKLILKKEDELGDRSIMFTVQNED | 6.4 |  | 
2 | SEQ ID NO: 124 (human D2D IL-18 consensus hD2D-CS2) (ligand, Engineered decoy-to-the-decoy variant) YFGKLESKLSVIRNLNGQVLFIDQGNRPLFADMTSSDCRDNAPRTIFIISFYKDSQPRGMAVTISVKCEKISTLSCENKIISFKEMNPPDNIKDTKSDIIFFLRSVPGHDNKMQFESSSYEGYFLACEKERDLFKLILKKEDELGDRSIMFTVQNED | 7.9 |  | 
3 | SEQ ID NO: 98 (human D2D IL-18 variant hD2D-5F02) (ligand, Engineered decoy-to-the-decoy variant) HFGKLESKLSVIRNLNGQVLFIDQGNRPLFGDMEASPCRDNAPRTIFIISFYKDSQPRGMAVTISVKCEKISTLSCENKIISFKEMNPPDNIKDTKSDIIFFIRSVPGADNKLQFESSSYEGYFLACEKERDLFKLILKKEDELGDRSIMFTVQNED | 5.4 |  | 
4 | SEQ ID NO: 125 (human D2D IL-18 consensus hD2D-CS3) (ligand, Engineered decoy-to-the-decoy variant) YFGKLESKLSVIRNLNGQVLFIDQGNRPLFADMESSDCRDNAPRTIFIISFYKDSQPRGLAVTISVKCEKISTLSCENKIISFKEMNPPDNIKDTKSDIIFFLRSVPGHDNKMQFESSSYEGYFLACEKERDLFKLILKKEDELGDRSIMFTVQNED | 8.9 |  | 
5 | SEQ ID NO: 120 (human D2D IL-18 variant hD2D-5B02) (ligand, Engineered decoy-to-the-decoy variant) YFGKLESKLSVIRNLNGQVLFIDQGNRPLFADMTSKRCRDNAPRTIFIISLYKDSQPRGFAVTISVKCEKISTLSCENKIISFKEMNPPDNIKDTKSDIIFFIRSVPGHDNKIQFESSSYEGYFLACEKERDLFKLILKKEDELGDRSIMFTVQNED | 4.2 |  | 
6 | SEQ ID NO: 101 (human D2D IL-18 variant hD2D-5E08) (ligand, Engineered decoy-to-the-decoy variant) YFGKLESKLSVIRNLNGQVLFIDQGNRPLFTDMTASPCRDNAPRTIFIISFYKDSQPRGLAVTISVKCEKISTLSCENKIISFKEMNPPDNIKDTKSDIIFFLRSVPGHDNKIQFESSSYEGYFLACEKERSLFKLILKKEDELGDRSIMFTVQNED | 8.8 |  | 
7 | SEQ ID NO: 123 (human D2D IL-18 consensus hD2D-CS1) (ligand, Engineered decoy-to-the-decoy variant) YFGKLESKLSVIRNLNGQVLFIDQGNRPLFADMTDSDCRDNAPRTIFIISMYKDSQPRGMAVTISVKCEKISTLSCENKIISFKEMNPPDNIKDTKSDIIFFLRSVPGHDNKMQFESSSYEGYFLACEKERDLFKLILKKEDELGDRSIMFTVQNED | 5.9 |  | 
8 | SEQ ID NO: 99 (human D2D IL-18 variant hD2D-5F01) (ligand, Engineered decoy-to-the-decoy variant) HFGKLESKLSVIRNLNGQVLFIDQGNRPLFTDMTSSDCRDKAPRTIFIISFYKDSQPRGLAVTISVKCEKISTLSCENKIISFKEMNPPDNIKDTKSDIIFFLRSVPGPDNKFQFESSSYEGYFLACEKERDLFKLILKKEDELGDRSIMFTVQNED | 4.8 |  | 
9 | SEQ ID NO: 6 (SEQ ID NO: 89 plus C38S/C68S) (ligand) YFGKLESKLSVIRNLNDQVLFIDQGNRPLFEDMTDSDSRDNAPRTIFIISKYSDSLARGLAVTISVKSEKISTLSCENKIISFKEMNPPDNIKDTKSDIIFFQRDVPGHSRKMQFESSSYEGYFLACEKERDLFKLILKKEDELGDRSIMFTVQNED |  | 1.96e-10 | 1.3e-10
10 | SEQ ID NO: 18 (SEQ ID NO: 89 plus C38S/C68V) (ligand) YFGKLESKLSVIRNLNDQVLFIDQGNRPLFEDMTDSDSRDNAPRTIFIISKYSDSLARGLAVTISVKVEKISTLSCENKIISFKEMNPPDNIKDTKSDIIFFQRDVPGHSRKMQFESSSYEGYFLACEKERDLFKLILKKEDELGDRSIMFTVQNED |  | 5.19e-11 | 4.48e-11
11 | SEQ ID NO: 20 (SEQ ID NO: 89 plus C38S/C68E) (ligand) YFGKLESKLSVIRNLNDQVLFIDQGNRPLFEDMTDSDSRDNAPRTIFIISKYSDSLARGLAVTISVKEEKISTLSCENKIISFKEMNPPDNIKDTKSDIIFFQRDVPGHSRKMQFESSSYEGYFLACEKERDLFKLILKKEDELGDRSIMFTVQNED |  | 1.35e-10 | 1.62e-10
12 | SEQ ID NO: 17 (SEQ ID NO: 89 plus C38S/C68A) (ligand) YFGKLESKLSVIRNLNDQVLFIDQGNRPLFEDMTDSDSRDNAPRTIFIISKYSDSLARGLAVTISVKAEKISTLSCENKIISFKEMNPPDNIKDTKSDIIFFQRDVPGHSRKMQFESSSYEGYFLACEKERDLFKLILKKEDELGDRSIMFTVQNED |  | 1.41e-10 | 1.09e-10
13 | SEQ ID NO: 16 (SEQ ID NO: 89 plus C38S/C68G) (ligand) YFGKLESKLSVIRNLNDQVLFIDQGNRPLFEDMTDSDSRDNAPRTIFIISKYSDSLARGLAVTISVKGEKISTLSCENKIISFKEMNPPDNIKDTKSDIIFFQRDVPGHSRKMQFESSSYEGYFLACEKERDLFKLILKKEDELGDRSIMFTVQNED |  | 2.05e-10 | 1.54e-10
14 | SEQ ID NO: 21 (SEQ ID NO: 89 plus C38S/C68N) (ligand) YFGKLESKLSVIRNLNDQVLFIDQGNRPLFEDMTDSDSRDNAPRTIFIISKYSDSLARGLAVTISVKNEKISTLSCENKIISFKEMNPPDNIKDTKSDIIFFQRDVPGHSRKMQFESSSYEGYFLACEKERDLFKLILKKEDELGDRSIMFTVQNED |  | 1.28e-10 | 1.24e-10
